{
  "source": "paper PMC4674748",
  "about": "“Identification of the Replication Origins from Cyanothece ATCC 51142 and Their Interactions with the DnaA Protein: From In Silico to In Vitro Studies”",
  "binders": {"B1": {"name": "Cbox23 (2Box2B, 35 nt) (dsDNA)", "DNA 1": "CCTTTAAATTTTTCCACAGTTTTTCCACAGCATTA", "DNA 2": "TAATGCTGTGGAAAAACTGTGGAAAAATTTAAAGG"}},
  "target": "T1, His6-DnaA (IV) (Cyanothece ATCC 51142, UniProt B1X0X6 331-455)",
  "T1 sequence": "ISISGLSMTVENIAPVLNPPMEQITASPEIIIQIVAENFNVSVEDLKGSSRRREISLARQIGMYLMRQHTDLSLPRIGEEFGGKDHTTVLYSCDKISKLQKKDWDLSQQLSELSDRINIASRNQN",
  "assay": "EMSA; 5-100 nM protein; 3 mM ATP, poly(dI-dC); better affinity than Lbox23; EMSA: 20 mM Hepes/KOH pH 8.0, 5 mM Mg acetate, 1 mM Na2EDTA, 4 mM DTT, 0.2% Triton X-100, 3 mM ATP, 5 mg/mL BSA, poly(dI-dC), 37 C 30 min; footprint: 25 C 30 min, 400 ng probe in 40 uL",
  "settings": "protein: recombinant; tags: N-terminal His6 (pET-28a, BamHI/HindIII); blunt",
  "data": [
    {"binder": "B1", "values": [
      {"measurement": "binding result", "result": "binds"}
    ]}
  ]
}
